Results reported in the supplement of paper PMC9112550, “Optimization of the antimicrobial peptide Bac7 by deep mutational scanning” (BMC Biology, 2022).

Test system: Escherichia coli TOP10
Experiment: shrunken log2 fold change of peptide-encoding DNA abundance (4.5 h post-induction vs induction); higher = less antimicrobial activity (less host growth inhibition)
Conditions: time post-induction: 4.5 h; library: site-saturation at positions 5, 18, 19, 20
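Further: peptides expressed intracellularly from a pBAD plasmid library in pooled LB shake-flask culture, induced with 0.3% L-arabinose, DNA abundance read by NGS, three biological replicates, DESeq2 with apeglm shrinkage.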

Sequence | shrunken log2 fold change
RRIRGRPPRLPRPRPRPQCKPRP | 0.165
RRIRVRPPRLPRPRPRPNDNPRP | -0.481
RRIRKRPPRLPRPRPRPTWSPRP | 0.278
RRIRWRPPRLPRPRPRPEYVPRP | 0.214
RRIRMRPPRLPRPRPRPTHPPRP | 0.564
RRIRSRPPRLPRPRPRPWWTPRP | -0.127
RRIRRRPPRLPRPRPRPCWWPRP | 0.261
RRIRIRPPRLPRPRPRPACRPRP | 0.225
RRIRERPPRLPRPRPRPDDAPRP | -0.179
RRIRDRPPRLPRPRPRPFIIPRP | -0.348
RRIRLRPPRLPRPRPRPMHVPRP | -0.0348
RRIRARPPRLPRPRPRPGLYPRP | -0.077
RRIRFRPPRLPRPRPRPAACPRP | 0.0906
RRIRYRPPRLPRPRPRPTQCPRP | -0.0863
RRIRLRPPRLPRPRPRPYIWPRP | -0.017
RRIRFRPPRLPRPRPRPDEFPRP | -0.267
RRIRCRPPRLPRPRPRPICMPRP | -0.491
RRIRTRPPRLPRPRPRPVPAPRP | 0.35
RRIRARPPRLPRPRPRPISVPRP | -0.173
RRIRDRPPRLPRPRPRPFWTPRP | -0.116
RRIRCRPPRLPRPRPRPDWLPRP | -0.0386
RRIRTRPPRLPRPRPRPSEAPRP | 0.0182
RRIRVRPPRLPRPRPRPYAKPRP | -0.0931
RRIRMRPPRLPRPRPRPAQCPRP | 0.0203
RRIRVRPPRLPRPRPRPCLQPRP | -0.421

Sequence | shrunken log2 fold change
RRIRARPPRLPRPRPRPMAEPRP | 0.238
RRIRNRPPRLPRPRPRPNRLPRP | 0.0192
RRIRGRPPRLPRPRPRPAHTPRP | 0.761
RRIRVRPPRLPRPRPRPMRTPRP | -0.0139
RRIRCRPPRLPRPRPRPPTVPRP | 0.202
RRIRWRPPRLPRPRPRPWAKPRP | 0.279
RRIRHRPPRLPRPRPRPVYRPRP | -0.305
RRIRGRPPRLPRPRPRPWHAPRP | 0.281
RRIRGRPPRLPRPRPRPAWLPRP | 0.694
RRIRKRPPRLPRPRPRPKQNPRP | 0.706
RRIRDRPPRLPRPRPRPQKTPRP | -0.253
RRIRMRPPRLPRPRPRPHGWPRP | 0.839
RRIRMRPPRLPRPRPRPYHDPRP | -0.256
RRIRMRPPRLPRPRPRPKNAPRP | 0.901
RRIRLRPPRLPRPRPRPKLIPRP | -0.219
RRIRARPPRLPRPRPRPSYMPRP | -0.761
RRIRNRPPRLPRPRPRPTKMPRP | 0.00053
RRIRRRPPRLPRPRPRPGNLPRP | 0.0367
RRIRTRPPRLPRPRPRPNEGPRP | -0.191
RRIRCRPPRLPRPRPRPYREPRP | -0.09
RRIRFRPPRLPRPRPRPFPKPRP | 0.00183
RRIRSRPPRLPRPRPRPTEAPRP | 0.0706
RRIRIRPPRLPRPRPRPFFMPRP | -0.538
RRIRHRPPRLPRPRPRPQVYPRP | -0.21
RRIRMRPPRLPRPRPRPWKHPRP | -0.109

Sequence | shrunken log2 fold change
RRIRDRPPRLPRPRPRPAKYPRP | -0.315
RRIRCRPPRLPRPRPRPVPAPRP | 0.457
RRIRKRPPRLPRPRPRPTYLPRP | -0.201
RRIRSRPPRLPRPRPRPFKWPRP | -0.24
RRIRTRPPRLPRPRPRPHGYPRP | -0.267
RRIRLRPPRLPRPRPRPHNNPRP | -0.847
RRIRARPPRLPRPRPRPDHLPRP | -0.0183
RRIRYRPPRLPRPRPRPLFQPRP | -0.76
RRIRFRPPRLPRPRPRPILRPRP | -0.156
RRIRYRPPRLPRPRPRPEPTPRP | 0.0581
RRIRKRPPRLPRPRPRPKMAPRP | 0.169
RRIRARPPRLPRPRPRPYFFPRP | -0.225
RRIRTRPPRLPRPRPRPSWSPRP | -0.196
RRIRNRPPRLPRPRPRPMKSPRP | -0.106
RRIRYRPPRLPRPRPRPMPLPRP | -0.398
RRIRERPPRLPRPRPRPSNSPRP | -0.0251
RRIRTRPPRLPRPRPRPPLEPRP | 0.531
RRIRYRPPRLPRPRPRPRVMPRP | -0.155
RRIRQRPPRLPRPRPRPMFDPRP | -0.109
RRIRSRPPRLPRPRPRPSKAPRP | -0.0678
RRIRGRPPRLPRPRPRPWHMPRP | -0.345
RRIRTRPPRLPRPRPRPDWRPRP | 0.0352
RRIRDRPPRLPRPRPRPHPDPRP | -0.116
RRIRQRPPRLPRPRPRPTCAPRP | 0.406
RRIRERPPRLPRPRPRPFRIPRP | -0.367

Sequence | shrunken log2 fold change
RRIRGRPPRLPRPRPRPIFNPRP | 0.051
RRIRCRPPRLPRPRPRPPCTPRP | -0.0939
RRIRTRPPRLPRPRPRPIRMPRP | -0.441
RRIRIRPPRLPRPRPRPNHTPRP | -0.541
RRIRQRPPRLPRPRPRPENCPRP | -0.219
RRIRQRPPRLPRPRPRPFHCPRP | -0.192
RRIRIRPPRLPRPRPRPDNLPRP | -0.00843
RRIRHRPPRLPRPRPRPFDTPRP | -0.178
RRIRMRPPRLPRPRPRPMHWPRP | -0.0799
RRIRGRPPRLPRPRPRPFPGPRP | 0.0889
RRIRFRPPRLPRPRPRPCPWPRP | -0.0658
RRIRCRPPRLPRPRPRPEAIPRP | 0.117
RRIRFRPPRLPRPRPRPKTQPRP | 0.397
RRIRTRPPRLPRPRPRPMGLPRP | 0.12
RRIRNRPPRLPRPRPRPGMKPRP | -0.272
RRIRDRPPRLPRPRPRPWTVPRP | -0.168
RRIRVRPPRLPRPRPRPSTFPRP | -0.479
RRIRDRPPRLPRPRPRPAEKPRP | 0.0328
RRIRVRPPRLPRPRPRPYPTPRP | -0.398
RRIRQRPPRLPRPRPRPPHDPRP | 1.12
RRIRARPPRLPRPRPRPPAYPRP | 0.3
RRIRTRPPRLPRPRPRPSDTPRP | -0.212
RRIRIRPPRLPRPRPRPPNQPRP | -0.0959
RRIRMRPPRLPRPRPRPQSFPRP | -0.199
RRIRRRPPRLPRPRPRPAWWPRP | 1.01

Sequence | shrunken log2 fold change
RRIRCRPPRLPRPRPRPEQKPRP | -0.0751
RRIRSRPPRLPRPRPRPLTYPRP | -0.132
RRIRERPPRLPRPRPRPRCNPRP | -0.122
RRIRVRPPRLPRPRPRPYLCPRP | 0.0235
RRIRVRPPRLPRPRPRPRKWPRP | 0.474
RRIRARPPRLPRPRPRPKSEPRP | 1.22
RRIRFRPPRLPRPRPRPLPFPRP | -0.452
RRIRLRPPRLPRPRPRPFDHPRP | -0.0264
RRIRIRPPRLPRPRPRPEVSPRP | 0.068
RRIRTRPPRLPRPRPRPCHTPRP | -0.166
RRIRVRPPRLPRPRPRPCDVPRP | 0.0119
RRIRHRPPRLPRPRPRPATIPRP | -0.281
RRIRNRPPRLPRPRPRPHIRPRP | -0.0139
RRIRERPPRLPRPRPRPIYMPRP | -0.372
RRIRRRPPRLPRPRPRPDPPPRP | 0.443
RRIRPRPPRLPRPRPRPRIKPRP | -0.138
RRIRDRPPRLPRPRPRPCWLPRP | 0.127
RRIRGRPPRLPRPRPRPEWVPRP | 0.875
RRIRYRPPRLPRPRPRPRCVPRP | -0.276
RRIRCRPPRLPRPRPRPSQQPRP | -0.0757
RRIRRRPPRLPRPRPRPETDPRP | -0.00744
RRIRSRPPRLPRPRPRPDWRPRP | 0.132
RRIRVRPPRLPRPRPRPTASPRP | 0.541
RRIRGRPPRLPRPRPRPQEVPRP | 0.00966
RRIRVRPPRLPRPRPRPIQPPRP | 0.0215
